A short description of assay [1]: Saturation mutagenesis of SEQ ID NO:109: dicamba decarboxylation activity of point mutants (CO2 released), fold of backbone (Tables 7, 8, Megatable 1). The note with it: decarboxylation activity (CO2 released) of point mutant vs unmutated backbone protein; backbone SEQ ID NO: 109.
Assay [2] can be described thus: DNA shuffling libraries: 14CO2 capturing assay in 384-well format, fold activity of backbone (Megatable 2). The note with it: relative to backbone SEQ ID NO: 133 (DDEC0201).

B1: 5 (protein, listed as Staphylococcus aureus)
chain: MAQNNMEANQMKSITFEEHYVIEDIQKETMNAISADPKGVPMKVMLEGLEKKTGFTNADELSHHDERIQFMNNQDVQIQVLSYGNGSPSNLVGQKAIELCQKANDQLANYIAQYPNRFVGFATLPINEPEAAAREFERCINDLGFKGALIMGRAQDGFLDQDKYDIIFKTAENLGVPIYLHPAPVNSDIYQSYYKGNYPEVTAATFACFGYGWHIDVGIHAIHLVLSGIFDRYPKLNMIIGHWGEFIPFFLERMDEALFAEHLNHPVSYYFKNNFYITPSGMLTKPQFDLVKKEAGIDRILYAADYPYIEPEKLGVFLDELGLTDEEKEKISYTNGAKLLGLSSNN
Take B1: the “Fold Activity” value in assay [1] is given as 0.8 fold.

B2: 92 (protein, listed as Chitinophaga pinensis)
chain: MARIVTLEEHVSFPEMTALLPEEILKNRKQSGAALQMQEKLADITGERLTSMKAAGISMQVLSVENTDVYLLPDSLAPAFAAKYNDLLADKISSHSDAFAAFAMLPMTVPEAAADELERAVKTHGFCGAMIKGLINGVFLDAPKFAPVFACAEKLGVPLYIHPGIPPKEVIDAYYSNVGDTKGPNEAIACYGWGWHSETAIHILRLLAAGIFDKYPQLNIIIGHMGEMLPMMWERSNRVFQPGNNGKNQRTLIETFRKQLYITTSGIFTQPPLQIAIDTIGIDNILFSIDYPFSSNQMGIDFLTKAALPAEQLAKMAHGNADRILKF
Take B2: in assay [1], the “Fold Activity” value is 1.7 fold.

B3: 93 (protein, listed as Mucilaginibacter paludis)
chain: MAKYGKHITINKNMRIVTLEEHISFPEMADQIPKAALGSFGRSEAMQRIAPKLADITGERLKSMDANGISMQVLSVDSSGVNLLSPQQGPAFATQYNDLIANRIAGFEKRFTAFAHLPMTAPFAAADELERAVKEHHFCGAMIRGLTGDQFLDHPQFAPIFERAQKLDVPIYLHPGLPPKGVADIYYSGLPNYSGMAEALACYGWGWHSETALHVLRLLFSGIFDQYPKLKLVIGHMGEMLPMMMARSEKAFKPGNGGANVRTLTDTFRSQVYLTTSGFFTQPPLKIALDTFGIDHVMFSVDYPFSTNEMGIEFLNEIDLPDEEVARIAHGNADKLLNLKA
Consider B3, for which the “Fold Activity” value in assay [1] worked out at 1.6 fold.

B4: 90 (protein)
chain: MAATIDRVLYLGNATQRRYTSATVSVPRIFGKVALEEHVGTSIWAKYNLTPPANAVVGVLNRPPTLPNTLDTIARLDDINGRLSSMNHSGIGYVIVSLSSPGIQGVHDTALAIKFSTDINDELYLKYANAYPDKFAFFATVPMQDPVAAASELERAVSLLGAKGAAINGYTDIGPPGNSTTRYLDDPINAPFWSKVAALNVPIYLHPRAPPPSQQLVYNYPNNSLSAYPGLVTGGFAYGAETAVHALRLMLSGLFDTHPNIQIILGHAAEGLPFLIHRSDTQLAAEVPGTNGPYKRPLRYYLRNNFYATLSGVRRLSTTQCTLAEMGEERVLFSVDYPFQSNEDAADWFDGVEGMSVETKRKVARGNARRLFNLTVDLDERQIDGDFM
modifications: Pyrenophora tritici-repentis
As to B4, the “Fold Activity” value in assay [1] is 1.7 fold.

B5: 94 (protein, listed as Bacillus thuringiensis)
chain: MANRGDSNMKSLVGVIMGSTSDWETMKYACDILDELNIPYEKKVVSAHRTPDYMFEYAETARERGLKVIIAGAGGAAHLPGMVAAKTNLPVIGVPVQSKALNGLDSLLSIVQMPGGVPVATVAIGKAGSTNAGLLAAQILGSFHDDIHDALELRREAIEKDVREGSELV
For the molecule B5, in assay [1], the “Fold Activity” value was 1.5 fold.

B6: 89 (protein, listed as Erwinia billingiae)
chain: MATNRRDFLKNATAVMAGSTVFAGSSHFASAAAVEPAAVQPPRRIIALEEHFMLPEFVGYLHETQQNLRNGLVDKVVTPLSDFGKGRLEIMDKNGVDFAVLSLSGPGVQAEPDRVKAVRLARYANDKLATEMQKNPRRYGGFAHLAMQDPLAAANELERCVKQLHMQGGMINGETDGLYLDDRRYDVFWERVEALNVPIYIHPGNPPDYPHMFAGHPEMWGPVWSWAVETCSHALRLIFSGTFDRYPGARVILGHMGETLPIQLWRLDSRYQIANQTFAIKHPPSWYAKKNITITTSGVCNDAALRCALDSMGSENVMFSIDYPFESTEIAVNWLKTANITEQERNAVAWGNATSILRLGA
As to B6, in assay [1], the “Fold Activity” value is 3.1 fold.

B7: 91 (protein, listed as Botryotinia fuckeliana)
chain: MASFVCNFGKAALATLLLTPSISAADYTPQETVLNSGRPTFYDASTSIPGKIALEEHVGNDLLNGLYTVPYYPNTNEPQYSDSVYIADVGEKMLDIPSRIANMDAANISISVLTFGGPGIQGVFNATYATYAAGYVNDYLYKNYKNNANYTGRFEFWCSNALQEPSKAATELERCVKELGGVGSFVGGYTNNGGINGTANDIVYLDDPSMEPFLEKVVELDVPIYLHPRMPAPSQLLSVKGYEFLGSSPWGFSSETGAHALRLMVSGTLDKYPTLKIVLGHCGEGLPFFLPRIDQRLRHFKKELFNNTLTMEEYWLRNFYVTTAGVQDAGTLVDTIKRTGEDRVMFSVDYPFEDTVEIAGWFDRLEMNTLTKTKLAYENAKALLKLTCYVDAEKRPRIFNKHHVDDIIKHTHSPCIWTLFH
For B7, the “Fold Activity” value in assay [1] turned out to be 1.6 fold.

B8: 133 (protein)
chain: MAQGKVALEEHFAIPETLQDSAGFVPGDYWKELQHRLLDIQDTRLKLMDAHGIETMILSLAAPAVQAIPDRRKAIEIARRANDFLAEECAKRPDRFLAFAALPLQDPDAATEELQRCVNDLGFVGALVNGFSQEGDGQTPLYYDLPQYRPFWGEVEKLDVPFYLHPRNPLPQDSRIYDGHPWLLGPTWAFAQETAVHALRLMASGLFDEHPRLNIILGHMGEGLPYMMYRIDHRIAWVKLPPRYPAKRRFMDYFNENFHITTSGNFRTQTLIDAILEIGADRILFSTDWPFENIDHAADWFNATSIAEADRVKIGRTNARRLFKLDGA
modifications: Dicamba decarboxylase variant
As to B8, the results for the “Fold Activity” value in assay [2] and in assay [1] were 1.0 fold and 1.3 fold, respectively.

B9: 138 (protein)
chain: MAQGKVALEEHFAIPETLQDSAGFVPGDYWKELQHRLLDIQDTRLKLMDAHGIETMILSLAAPAVQAIPDRRKAIEIARRANDFLAEECAKRPDRFLAFAALPLQDPDAATEELQRCVNDLGFVGALVNGFSQEGDGQTPLYYDLPQYRPFWGEVEKLDVPFYLHPRNPLPQDSRIYDGHPWLLGPTWAFAQETAVHALRLMASGLFDEHPRLNIILGHMGEGLPYMMYRIDHRIAWVHEPPRYPAKRRFMDYFNENFHITTSGNFRTQTLIDAILEIGADRILFSTDWPFENIDHAADWFNATSIAEADRLKIGRTNARRLFKLDLD
modifications: Dicamba decarboxylase variant
On to B9, for which the “Fold Activity” value in assay [2] turned out to be 1.1 fold; in assay [1], 0.7 fold.

B10: 135 (protein)
chain: MAQGKVALEEHFAIPETLQDSAGFVPGDYWKELQHRLLDIQDTRLRLMDAHGIETMILSLAAPAVQAIPDRRKAIEIARRANDFLAEECAKRPDRFLAFAALPLQDPDAATEELQRCVNDLGFVGALVNGFSVEGDGQTPLYYDLPQYRPFWGEVEKLDVPFYLHPRNPLPQDSRIYDGHPWLLGPTWAFAQETAVHALRLMASGLFDEHPRLNIILGHLGEGLPYMMYRIDHRIAWVKLPPRYPAKRRFMDYFLENFHITTSGNFRTQTLIDAILEIGADRILFSTDWPFENIDHAADWFNATSIAEADRVKIGRTNARRLFKLDGD
modifications: Dicamba decarboxylase variant
On to B10, for which the “Fold Activity” value stood at 1.3 fold in assay [2] and 1.5 fold in assay [1].

B11: 139 (protein)
chain: MAQGKVALEEHFAIPETLQDSAGFVPGDYWKELQHRLLDIQDTRLKLMDAHGIETMILSLAAPAVQAIPDRRKAIEIARRANDFLAEECAKRPDRFLAFAALPLQDPDAATEELQRCVNDLGFVGALVNGFSQEGDGQTPLYYDLPQYRPFWGEVEKLDVPFYLHPRNPLPQDSRIYDGHPWLLGPTWAFAQETAVHALRLMASGLFDEHPRLNIILGHMGEGLPYMMYRIDHRIAWVKLPPRYPAKRRFMDYFNENFHITTSGNFRTQTLIDAILEIGADRILFSTDWPFENIDHAADWFNATSIAEADRLKIGRTNARRLFKLDGD
modifications: Dicamba decarboxylase variant
Take B11: the “Fold Activity” value in assay [2] turned out to be 1.1 fold; in assay [1], 1.4 fold.

B12: 136 (protein)
chain: MAQGKVALEEHFAIPETLQDSAGFVPGDYWKELQHRLLDIQDTRLKLMDAHGIETMILSLAAPAVQAIPDRRKAIEIARRANDFLAEECAKRPDRFLAFAALPLQDPDAATEELQRCVNTLGFVGALVNGFSVEGDGQTPLYYDLPQYRPFWGEVEKLDVPFYLHPRNPLPQDSRIYDGHPWLLGPTWAFAQETAVHALRLMASGLFDEHPRLNIILGHLGEGLPYMMYRIDHRIAWVHEPPRYPAKRRFMDYFNENFHITTSGNFRTQTLIDAILEIGADRILFSTDWPFENIDHAADWFNATSIAEADRVKIGRTNARRLFKLDGA
modifications: Dicamba decarboxylase variant
As for B12, the entries for the “Fold Activity” value in assay [2] and in assay [1] were 1.4 fold and 1.2 fold, respectively.

B13: 134 (protein)
chain: MAQGKVALEEHFAIPETLQDSAGFVPGDYWKELQHRLLDIQDTRLKLMDAHGIETMILSLAAPAVQAIPDRRKAIEIARRANDMLAEECAKRPDRFLAFAALPLQDPDAATEELQRCVNDLGFVGALVNGFSQEGDGQTPLYYDLPQYRPFWGEVEKLDVPFYLHPRNPLPQDSRIYDGHPWLLGPTWAFAQETAVHALRLMASGLFDEHPRLNIILGHLGEGLPYMMYRIDHRIAWVHEPPRYPAKRRLMDYFNENFHITTSGNFRTQTLIDAILEIGADRILFSTDWPFENIDHAADWFNATSIAEADRVKIGRTNARRLFKLDGA
modifications: Dicamba decarboxylase variant
For B13, the “Fold Activity” value was found to be 1.1 fold in assay [2] and 1.5 fold in assay [1].

B14: 137 (protein)
chain: MAQGKVALEEHFAIPETLQDSAGFVPGDYWKELQHRLLDIQDTRLKLMDAHGIETMILSLAAPAVQAIPDRRKAIEIARRANDFLAEECAKRPDRFLAFAALPLQDPDAATEELQRCVNTLGFVGALVNGFSQEGDGQTPLYYDLPQYRPFWGEVEKLDVPFYLHPRNPLPQDSRIYDGHPWLLGPTWAFAQETAVHALRLMASGLFDEHPRLNIILGHMGEGLPYMMYRIDHRIAWVHEPPRYPAKRRFMDYFNENFHITTSGNFRTQTLIDAILEIGADRILFSTDWPFENIDHAADWFNATSIAEADRLKIGRTNARRLFKLDGA
modifications: Dicamba decarboxylase variant
With B14, the figures for the “Fold Activity” value in assay [2] and in assay [1] were 1.4 fold and 1.1 fold, respectively.

These data come from patent publication US20160040149A1, “Compositions Having Dicamba Decarboxylase Activity and Methods of Use” (priority 2013, published 2016).
